What all share (settings): both partners purified
Assay [1] has as its target T1, semi-synthetic Atg3 K19ac-K48ac (Saccharomyces cerevisiae, UniProt P40344 1-310, Gln27 mutated to Cys27 | S54C, acetyl-lysine at K19 and K48).
T1 construct: Atg3 of yeast Saccharomyces cerevisiae, Atg3(1-310), 310 amino acids, with Gln27 and Ser54 mutated to Cys for ligation; also called K19/K48-diacetylated Atg3; 2ac
T1 sequence (looked up): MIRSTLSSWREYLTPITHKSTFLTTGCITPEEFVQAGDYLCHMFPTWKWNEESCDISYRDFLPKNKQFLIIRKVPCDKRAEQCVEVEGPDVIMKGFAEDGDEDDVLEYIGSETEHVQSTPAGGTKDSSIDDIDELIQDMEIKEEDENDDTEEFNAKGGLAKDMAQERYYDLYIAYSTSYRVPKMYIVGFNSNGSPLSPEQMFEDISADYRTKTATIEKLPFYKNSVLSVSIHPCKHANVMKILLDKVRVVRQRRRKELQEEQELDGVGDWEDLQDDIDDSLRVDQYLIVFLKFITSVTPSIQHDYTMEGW
The assay is described as follows: MST; Monolith NT.115 (20% LED, 20% MST power); Atg8 labelled with Dye NT-647 NHS, Atg3 at different concentrations; 50 mM Tris-HCl pH 7.4, 150 mM NaCl, 10 mM MgCl2, 0.05% Tween-20; apparent KD, mean of three independent experiments.

The target in assay [2] is T2, WT Atg3 (bacterially expressed and purified) (Saccharomyces cerevisiae, UniProt P40344 1-310).
T2 construct: Atg3, E2-like enzyme of yeast Saccharomyces cerevisiae (310 amino acids); 'the region coding WT Atg3' inserted into pGEX-6P-1; GST excised with PreScission protease; residues of the vector may remain at the N-terminus (surmised); also called Atg3 WT; E. coli expressed WT Atg3; source: E. coli BL21 (DE3), purified (glutathione-Sepharose 4B, PreScission protease, Mono Q, Superdex 200)
T2 sequence (looked up): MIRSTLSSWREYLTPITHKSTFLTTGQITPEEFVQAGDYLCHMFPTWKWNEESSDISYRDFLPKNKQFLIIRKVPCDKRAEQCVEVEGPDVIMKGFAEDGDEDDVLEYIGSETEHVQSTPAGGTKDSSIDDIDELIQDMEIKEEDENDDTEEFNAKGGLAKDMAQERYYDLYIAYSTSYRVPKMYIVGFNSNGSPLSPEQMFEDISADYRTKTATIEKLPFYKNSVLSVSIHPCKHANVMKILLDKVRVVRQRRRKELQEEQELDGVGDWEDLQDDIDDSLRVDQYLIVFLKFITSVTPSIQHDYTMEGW
The assay is described as above.

The target in assay [3] is T1, semi-synthetic Atg3 K19ac-K48ac. Nature of the assay: SPR; Biacore T200, 25 °C; Atg3 immobilised by amine coupling on CM5 chip (400 RU); Atg8 injected at 30 μl/min up to 3,200 nM; 10 mM phosphate buffer, 2.7 mM KCl, 137 mM NaCl, 0.05% surfactant P20, pH 7.4.
Assay [4] has as its target T2, WT Atg3 (bacterially expressed and …). Described as above.

B1: Atg8 (bacterially expressed and purified) (natural protein, yeast, UniProt P38182 1-117, looked up)
chain: MKSTFKSEYPFEKRKAESERIADRFKNRIPVICEKAEKSDIPEIDKRKYLVPADLTVGQFVYVIRKRIMLPPEKAIFIFVNDTLPPTAALMSAIYQEHKDKDGFLYVTYSGENTFGR
notes: Atg8 of yeast; 'the region coding ; Atg8' inserted into pGEX-6P-1; In the MST experiment this Atg8 was labelled on primary amines with Dye NT-647 NHS; also called recombinant Atg8; purified Atg8; source: E. coli BL21 (DE3), purified (glutathione-Sepharose 4B, PreScission protease, Mono Q, Superdex 200)
B1: the Kd in assay [1] stood at 490 ± 80 nM; in assay [2], 520 ± 70 nM; in assay [3] it was 650 ± 70 nM; in assay [4], 730 ± 50 nM.

(Values after publication PMC5473643, “A semisynthetic Atg3 reveals that acetylation promotes Atg3 membrane binding and Atg8 lipidation” (Nature Communications, 2017).)
